Data from patent US20120315270A1.

Assays:
[1] = target: RSV F glycoprotein on GFP-expressing RSV (respiratory syncytial virus) (UniProt P03420)
[2] = target: RSV F0 Fd (respiratory syncytial virus, strain A2) (UniProt P03420); test: densitometry of SDS-PAGE of the gel filtration complex peak

In the case of SYNAGIS® IgG (palivizumab) (antibody), the EC50 (read off the curve), neutralization of GFP-expressing RSV on HEp-2 cells, flow cytometry [1] is reported as 0.5 nM.

palivizumab Fab was tested, and the Fabs per trimer (Fabs per trimer) [2] was 2.97.
